# Reference: the supplement of paper PMC9170038
# Test system: K4 kissing-loop RNA reporter
# Assay: apparent KD of K4 kissing-loop reporter; higher = weaker reporter binding
# Conditions: Eterna round: R107
# Experimental: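 RNA-MaP round R107: designed RNA switches with theophylline, tryptophan, arginine or FMN aptamers are transcribed on-chip within common flanks. They are titrated with a labelled K4 kissing-loop RNA reporter in RNA-MaP buffer (100 mM Tris pH 7.5, 80 mM KCl, 4 mM MgCl2), without ligand or with the indicated ligand. Median apparent KD per design.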
# [1] = input ligand: theophylline 20 uM
# [2] = input ligand: tryptophan 2.4 mM
# 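Note: bound reporter read as fluorescence of individual clusters on recovered sequencing chips by microscopy, with normalized cluster intensities fitted with a binding model.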
Sequence,apparent KD of K4 kissing-loop reporter (input ligand: FMN 200 uM),apparent KD of K4 kissing-loop reporter (input ligand: arginine 13.2 mM),apparent KD of K4 kissing-loop reporter (input ligand: none),apparent KD of K4 kissing-loop reporter [1],apparent KD of K4 kissing-loop reporter [2]
GGCAGUGAUGUUGCCAGUGGCAGAUUGGAAGGAGCGUGGUGAGACACAGGUAGGUCGCUAAUUGAAGUUGCUGUCACUAGAAUGC [whbob_Ex_Arginine_A_2t132],214 nM,280 nM,293 nM,335 nM,231 nM
AGUAAUCUCACGGCCGCCACUGUUUAUUGUUUUUAUAGUUAUAAAUCUUGCCAGUGAUGUUGGUACAGGACCGGGUGAGUUAAUA [#25 K4 Tryptophan B Same State],357 nM,360 nM,402 nM,353 nM,316 nM
AAAUUUUCAAGUGAUACCAGACAUCUCUAUUACAUUAAUAUAGCUAAGUGAUGUUUAGCAGUCCCUUGGCAGCACAAUUUAAUUA [JR_SSTheophyB_Sub013],255 nM,202 nM,297 nM,337 nM,215 nM
AAGUCACAGGCAGGAUAUGCUUAGUAAUAAGGCCAUAUAUACGUAUAGAGUGAUGUUUUGUACCAGGCAGAAGGGCUACAUCCGU [FMN B Excl V3 (+2GCs)],876 nM,503 nM,882 nM,650 nM,597 nM
GGAUCCACCAGUGAUGUUGGAGAAAACUUCAAGGAUAUGACGAAAGUCAGAAGGUGGUAGACUGGUCAAAGUCCGGUCGGAUCCA [FmnA10 U29+U66],658 nM,120 nM,459 nM,147 nM,194 nM
UUCAGUGACAUACGAGUGAUGUUCGUAAUACGAGGACCGGUACGGCCGCCACUCGCACGUCGGCAGUUUGUUCAUGCAUCAGACU,226 nM,160 nM,259 nM,255 nM,514 nM
AGAGUUAAUUAGUCUUUUUUAACAUUAAGUCAGGAUAUCGUAUAUUCGAGAAGGGACACAUGCUAGUGAUGUUAGCUAUUUCUCA [JR_ExcFMNA_Sub018],50.2 nM,90.5 nM,56.5 nM,86.7 nM,47.2 nM
GCCGUACGCAUGGAUACCAGAUGGCACUAUAAUCUACCAGAGUGAUGUUCUGGCCUGCCCAUCCCUUGGCAGCCAUGCGUACGGC,293 nM,199 nM,287 nM,171 nM,206 nM
CAUAGGAAACUAUGUUUCUCUCUGACUGAAGGAGCGCGUGAAAACGCAGGUAGGUCGCAGAAUUUAACAGAGAGUGAUGUUCUCA [Ex Arginine A K4 12],457 nM,396 nM,567 nM,633 nM,430 nM
AGGCGGCAUGAUUGACUGAAAAGAAAUCAACGAGGACCGGUACGGCCGCCACUCGAACACCAGUGAUGUUGGUAUGGGAUAACCC [Exclusion Tryptophan A GF 19],178 nM,188 nM,184 nM,173 nM,159 nM
CCGCUGCCCUCAGGAUAUUAAGUAUUAGUGAUGUUAGUAAACCGAUGGCGAAAGCCAUCGGUAUGUUGAGAAGGGAGGGUAGCGG [whbob_SS_FMNB__2th199],370 nM,627 nM,662 nM,1140 nM,550 nM
GCGCGUGUUAAAGGAUAUAGCAGGUGAUACAAGAAAGUGAGUGAUGUUUAUGUAGAUGAUGAUAUGUUAGAAGGUUAACAAGCGC [abcdefghijklmnopq],778 nM,606 nM,847 nM,739 nM,605 nM
UGAUACCAGACGGCCGCCACUGGUGCAGUCAAAGACUGCUAAAACCAAAUCGUGGAGUGAUGUUCCAGGACCGGGUCUGGUAUCU [TrypBX 20 #SwitchBubble #Palindromic #StaticStem],451 nM,423 nM,452 nM,462 nM,674 nM
GCUAUGGUAGGAAGGAGCGCGGACGAAAUAUAUCGAGUGAUGUUCGAAUAAUUAAAUAAAACGCAGGUAGGUCGCCUACUAUAGC [Arginine B K4 25],116 nM,114 nM,110 nM,120 nM,97.6 nM
CGAGUGAUGUUCGAAGAGUUGUUAAGCGAUACCAGCUAGGAAACUGGCCCUUGGCAGCGUAAUAAGUUAAUAAAUAAAUGAUCAC [whbob_Ex_Theo_A_th64],376 nM,411 nM,360 nM,449 nM,301 nM
GCACUGAAGUGAUGUUUUUGUGCACGUUGAAAGGAUAUCUGCUUGUAGAGAAGGUUCUGUUUGUGCGGAGCGGGCGUUACCGGCA [theeternabot_exclusion_KL_FMN_A_32],307 nM,269 nM,310 nM,285 nM,308 nM
CAUACGCAUGGAGGAUAUGGGAUUUCUCAUAUUAACCUGUAUCAGGUAUCUCAGUGAUGUUGAGACUCAGAAGGCCAUGUGUAUG [Ex FMN B 25],494 nM,303 nM,364 nM,354 nM,344 nM
UUAGUUGAAAGUGAUACCAGACAAGUUAAGAGAAGAAAUUAAGUUGGAGUGAUGUUCCAAGUCCCUUGGCAGCACAUUGUAAUUU [Same State Theophylline B GF12],101 nM,211 nM,129 nM,256 nM,126 nM
AGUGGACGUGUCCGGAGUGAUGUUCCGGAUACCAGACACGAAAGUGUCCCUUGGCAGCCGGAGUGAUGUUCCGGCGUUCACUAAA [Omei KL Theo A Exc B v1],270 nM,185 nM,243 nM,220 nM,257 nM
UGUAUGUGAUUUGAUACCAGACAAGCAGGUGUGACAAGAGUGAUGUUCUUGAUGGUUUGGGUCCCUUGGCAGCAAAUCGCAUACU [KL-SSTheoB16],194 nM,145 nM,178 nM,141 nM,154 nM
CUGGGUUGACGAAAAGUCAACAAAAGAGAAGGAGCGCACGAAAGUGCAGGUAGGUCGCUCAAUCCAGUGAUGUUGGGUCAUCCAG [#SwitchBubble 14 #K4Late],568 nM,580 nM,800 nM,1110 nM,869 nM
AAGUCAUAGGCAGGAUAUGCAUUGUAGUAAGGCAAUAUAUACGUAUAGAGUGAUGUUUUGUACCAGGCAGAAGGGCUACAUCAGU [FMN B Excl V11 (+G)],826 nM,367 nM,645 nM,868 nM,492 nM

Sequence,apparent KD of K4 kissing-loop reporter (input ligand: FMN 200 uM),apparent KD of K4 kissing-loop reporter (input ligand: arginine 13.2 mM),apparent KD of K4 kissing-loop reporter (input ligand: none),apparent KD of K4 kissing-loop reporter [1],apparent KD of K4 kissing-loop reporter [2]
UUUAUUAAGACGGCCGCCACUGAUUCAGAGUGAUGUUCUGAUAUUUUUUUAUAUAAUAAUAACAGCAGGACCGGGUCAAUUAUUA [JR_SSTryptoB_Sub013],225 nM,237 nM,233 nM,272 nM,192 nM
AGGUCACGAGGAAGGAGCGCCCUGACAGGUUGCUGCCGUGGGCAGUGAUGUUGCUCAGUCCGGCAGGUAGGUCGCCUCGUGACCU,151 nM,174 nM,147 nM,111 nM,148 nM
AGAGAUAUAUGAGGAUAUGGGUUAGUUAAUGAGUUAGUUUUAGUGUUGUUUGGUUAGUGAUGUUAUUUAGAAGGCGUGAGUGAUG [cqqbmullin],98.4 nM,60.8 nM,70 nM,112 nM,66.2 nM
AAUAAAAUCACGGCCGCCACUGAUUUUUUUAUUAGGAGUGAUGUUCCUAUGACUAUAUUAUUUAACAGGACCGGGUGAAUAUUUA [JR_SSTryptoB_Sub023],79.6 nM,97.5 nM,87.4 nM,93.3 nM,74.5 nM
CUUGUACAAGUGAUGUUUGUUAUAUCCGAAGGAGCGUCGUAAUAGACAGGUAGGUCGCGGAGUAAGAUAGUUUUUUUAAUAUCAU [JR_Nu_SSArginiA_Sub029],435 nM,338 nM,556 nM,462 nM,288 nM
GGAUAGGACAAAGGAUAUGGUAGUGAUGUUACCAAACUGGUUAAACAUGUCAGAAAACUGGCAUGACCAGAAGGUUGUCCUAUCG [FmnBX 27 A11+U75],86.4 nM,62.8 nM,66.3 nM,61.1 nM,66.9 nM
AGGCGGCAAGAUUGAUUGGAAAGUAAUCGACGAGGACCGGUACGGCCGCCACUCGAACACCAGUGAUGUUGGUCUGGCUUAAGCC [Exclusion Tryptophan A GF 20],430 nM,369 nM,435 nM,477 nM,363 nM
AAGCAGUCACGCGAAGCCAUCGAAGAUGGCCGAGGACCGGUACGGCCGCCACUCGGAGUGAUGUUCCGAAGACUGCAAAAUAAAA,370 nM,386 nM,417 nM,468 nM,252 nM
UGGAGUUGACGAAAAGUCAACUCCGGAGAAGGAGCGGACGAAAGUCCAGGUAGGUCGCUCCCUACCAGUGAUGUUGGUACUGAAA,244 nM,241 nM,209 nM,319 nM,181 nM
CGCGCGCGCUUGAGAGGGCGCGCGCGAAGUGAGGAUAUUUAGGGAGAAAGAAGGCACUAUAAAAUAUAGUGAUGUUAUAUAAGGG [SSFMNA.E],1180 nM,240 nM,468 nM,2790 nM,441 nM
ACAUCGGUUGAGAGUGAUGUUCCUUGUGUUCGAGGACCGGUACGGCCGCCACUCGGGUAGAAAAUAACAGAUGUGUUUCCUUUUU [BDazzled - #18 SS Tryptophan A],164 nM,80.5 nM,171 nM,181 nM,209 nM
AGUUCUUGCCGAAGGAGCGAGGCAGAGUGAUGUUCUGCAAAGGUCGAAAGACCUUAACUGCCUCAGGUAGGUCGCGGCAUGAACA [KL-XARG-B23],622 nM,351 nM,624 nM,602 nM,580 nM
GCGUUAGUACUCGAUACCAGACCUCUAGUAGUGAUGUUGCUUGGCGAAGGCCUCGAACGAGUCCCUUGGCAGCGAGGAAAGAGGA [theeternabot_sameState_KL_Theo_B_4],506 nM,387 nM,584 nM,376 nM,450 nM
CUCGUGGGUUUGAGAGGGCUUGUGGGAAGUGAGGAUAUUUAGGGAGAAAGAAGGCACUAUAGAAUAUAGUGAUGUUAUAUAAGGG [SSFMNA.N],314 nM,95.7 nM,200 nM,273 nM,212 nM
UGAUACCAGACGGCCGCCACUGCACCAGUCAAUGACUGAGCGCGGUGGCGCUCAGUGAUGUUGAGCAGGACCGGGUCUGGUAUCU [Mod of Eli's TrypBX 8 v4],147 nM,117 nM,136 nM,145 nM,93.9 nM
GAGAAUAACGGAAGGAGCGAGUAAUGGAGUGAUGUUCCAAUCAAUAAAACACAAUAAAAUACUCAGGUAGGUCGCCGUAGUAGUU [Exclusion Argiie B GF 12],244 nM,339 nM,323 nM,330 nM,215 nM
UCGGCAGUGAACGAUACCAGCGUCACGUGGCUGGUGGUCACAUGAGUGAUGUUCAUGUAACGCCCUUGGCAGCGUGCGCGUACCG [KL-XTheo-B11],113 nM,98.1 nM,107 nM,94.7 nM,103 nM
GAGGCCAAACGGAGUGAUGUUUCGUAUGAUACCAGCAGCGAAAGCUGCCCUUGGCAGCAUGCCACGGCCUCGGCAGGAAACUGCC,401 nM,322 nM,358 nM,371 nM,339 nM
UUGGAAAUCAGAAGGAGCGUCUAAAAUGAAGGAACCAGUGAUGUUGGUUUUAUUUAAUGAAGACAGGUAGGUCGCUGAAUUUUUA [Same State Arginie B GF 18],91.4 nM,101 nM,94.4 nM,116 nM,91.5 nM
UUUAUUAAGACGGCCGCCACUGAUUCAUAGUGAUGUUAUGAUAUAAUUUUAGUGAUGUGCAUUAGCAGGACCGGGUCAAUUAUUA [#28 K4 Tryptophan B Exclusion],125 nM,108 nM,120 nM,94.7 nM,101 nM
UGACUGGACUGAAGGAGCGCGCGAGACAAAGUCUCGAACUCGUAGUGAUGUUAGGAAAUAACGCAGGUAGGUCGCAGUCUAGUCU,651 nM,417 nM,611 nM,796 nM,512 nM
ACGUAUAUCAGAGGAUAUCGUAUUAAUAUUUUAUCUAUCUAUAUAUGCAGUGAUGUUGCAAUAAUUCGAGAAGGCUGAUUUACGA [JR_ExcFMNB_Sub010],112 nM,124 nM,91.6 nM,133 nM,87.3 nM
